Results on one molecule are retold here after publication PMC6168492, “Human and mouse albumin bind their respective neonatal Fc receptors differently” (Scientific Reports, 2018).

For test [1], the target named is T1, wild-type mouse serum albumin with C-terminal GST (mouse, UniProt P07724 25-608).
T1 construct: mouse serum albumin; also called MSA WT; WT MSA; source: HEK293E, transiently transfected, purified from supernatant (GSTrap FF); not shown: GST (Schistosoma japonicum), C-terminal, kept
The experiment in a line: SPR; receptor binding to immobilised albumin at pH 5.5 in the presence of 0.005% Tween-20 instead of 0.05%. The conditions noted are these: both partners purified. (In general: Surface plasmon resonance follows binding to a sensor surface in real time, without labels.)

In test [2] the target is T1, wild-type mouse serum albumin with …. Kind of test: SPR; Biacore T200; albumin variants amine-coupled on CM5 (~200 or 500 RU); monomeric His-tagged hFcRn or mFcRn injected in serial dilutions; phosphate buffer (177 mM phosphate, 85 mM NaCl, 0.05% Tween 20) pH 5.5, 30 µl/min, 25 °C; 1:1 Langmuir model. Conditions: both partners purified.

Broadly, the Kd is the free concentration of one partner at which half of the binding sites on the other are occupied at equilibrium, for simple one-to-one binding. A higher Kd goes with lower affinity. In general, koff refers to the rate constant with which the complex falls apart. In general, kon refers to the rate constant with which the complex forms. A high value points to fast association.

T1 sequence (P07724 25-608): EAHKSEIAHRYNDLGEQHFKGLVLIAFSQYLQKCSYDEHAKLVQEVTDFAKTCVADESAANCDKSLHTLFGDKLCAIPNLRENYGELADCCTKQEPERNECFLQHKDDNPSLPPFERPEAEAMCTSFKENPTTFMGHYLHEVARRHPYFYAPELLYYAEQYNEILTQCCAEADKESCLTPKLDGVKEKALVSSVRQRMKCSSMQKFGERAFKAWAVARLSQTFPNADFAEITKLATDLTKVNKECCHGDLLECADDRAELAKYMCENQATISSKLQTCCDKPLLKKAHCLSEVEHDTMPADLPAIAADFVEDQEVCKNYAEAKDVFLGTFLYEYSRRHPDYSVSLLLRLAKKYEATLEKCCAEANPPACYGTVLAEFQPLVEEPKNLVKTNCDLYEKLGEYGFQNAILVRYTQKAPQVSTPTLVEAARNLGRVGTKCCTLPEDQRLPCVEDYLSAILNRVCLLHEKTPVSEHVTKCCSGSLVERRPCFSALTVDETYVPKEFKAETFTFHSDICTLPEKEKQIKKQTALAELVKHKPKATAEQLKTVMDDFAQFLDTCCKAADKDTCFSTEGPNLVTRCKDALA

B1: soluble monomeric His-tagged mouse neonatal Fc receptor (mFcRn) (receptor)
chain: SETRPPLMYHLTAVSNPSTGLPSFWATGWLGPQQYLTYNSLRQEADPCGAWMWENQVSWYWEKETTDLKSKEQLFLEALKTLEKILNGTYTLQGLLGCELASDNSSVPTAVFALNGEEFMKFNPRIGNWTGEWPETEIVANLWMKQPDAARKESEFLLNSCPERLLGHLERGRRNLEWKEPPSMRLKARPGNSGSSVLTCAAFSFYPPELKFRFLRNGLASGSGNCSTGPNGDGSFHAWSLLEVKRGDEHHYQCQVEHEGLAQPLTVDLDSSARSS
b2m: IQKTPQIQVYSRHPPENGKPNILNCYVTQFHPPHIEIQMLKNGKKIPKVEMSDMSFSKDWSFYILAHTEFTPTETDTYACRVKHASMAEPKTVYWDRDM
notes: neonatal Fc receptor heavy chain, mouse, soluble form; beta2-microglobulin, non-covalently associated with the heavy chain; Surmised: the His tag sits on the truncated heavy chain; also called mouse FcRn; the mouse receptor
B1: the “fold change of KD in 0.005% against 0.05% Tween-20” value in test [1] was 1.7 fold. Further, in test [2], binding was put at a Kd of 547 nM, the koff worked out at 0.0164 s⁻¹ and the kon is 30000 M⁻¹ s⁻¹.
